{
  "source": "the RNAGym collection of RNA variant scans (doi:10.7554/elife.90254)",
  "parents": {"B1": {"name": "LINE1-mini (parent)", "chain": "GGCAGAGCUCAACACAGCGUGGCAAAGUGGCUGUGGCUAGACUGCC"}},
  "data": [
    {"variants_of": "B1", "assay": "self-cleavage, relative activity (ratio to wild type); higher = more cleavage; in vitro, sequencing; the parent is a self-cleaving ribozyme", "values": [
      {"variant": "GGCAGAGCUCAACACAGCGUGGCAAAGUGGCUGUGGCGAGACUGCG", "note": "[U38G C46G]", "self-cleavage": 0.02},
      {"variant": "GGCAGAGCUCAACACAGCGUGGCAAAGUGGCUGUGGCGAGACUGCA", "note": "[U38G C46A]", "self-cleavage": 0.02},
      {"variant": "GGCAGAGCUCAACACAGCGUGGCAAAGUGGCUGUGGCGAGACUGCU", "note": "[U38G C46U]", "self-cleavage": 0.04},
      {"variant": "GGCAGAGCUCAACACAGCGUGGCAAAGUGGCUGUGGCGAGAAUGCC", "note": "[U38G C42A]", "self-cleavage": 0.03},
      {"variant": "GGCAGAGCUCAACACAGCGUGGCAAAGUGGCUGUGGCGAGAUUGCC", "note": "[U38G C42U]", "self-cleavage": 0.03},
      {"variant": "GGCAGAGCUCAACACAGCGUGGCAAAGUGGCUGUGGCGAGAGUGCC", "note": "[U38G C42G]", "self-cleavage": 0.02},
      {"variant": "GGCAGAGCUCAACACAGCGUGGCAAAGUGGCUGUGGCGAUACUGCC", "note": "[U38G G40U]", "self-cleavage": 0.05},
      {"variant": "GGCAGAGCUCAACACAGCGUGGCAAAGUGGCUGUGGCGACACUGCC", "note": "[U38G G40C]", "self-cleavage": 0.03},
      {"variant": "GGCAGAGCUCAACACAGCGUGGCAAAGUGGCUGUGGCGAAACUGCC", "note": "[U38G G40A]", "self-cleavage": 0.04},
      {"variant": "GGCAGAGCUCAACACAGCGUGGCAAAGUGGCUGUGGCUGGACUGAC", "note": "[A39G C45A]", "self-cleavage": 0.1},
      {"variant": "GGCAGAGCUCAACACAGCGUGGCAAAGUGGCUGUGGCUGGACUGGC", "note": "[A39G C45G]", "self-cleavage": 0.09},
      {"variant": "GGCAGAGCUCAACACAGCGUGGCAAAGUGGCUGUGGCUGGACUGUC", "note": "[A39G C45U]", "self-cleavage": 0.06},
      {"variant": "GGCAGAGCUCAACACAGCGUGGCAAAGUGGCUGUGGCUUGACUGAC", "note": "[A39U C45A]", "self-cleavage": 0.18},
      {"variant": "GGCAGAGCUCAACACAGCGUGGCAAAGUGGCUGUGGCUUGACUGGC", "note": "[A39U C45G]", "self-cleavage": 0.24},
      {"variant": "GGCAGAGCUCAACACAGCGUGGCAAAGUGGCUGUGGCCAGACUCCC", "note": "[U38C G44C]", "self-cleavage": 0.32},
      {"variant": "GGCAGAGCUCAACACAGCGUGGCAAAGUGGCUGUGGCCAGACUUCC", "note": "[U38C G44U]", "self-cleavage": 0.27},
      {"variant": "GGCAGAGCUCAACACAGCGUGGCAAAGUGGCUGUGGCCAGACUACC", "note": "[U38C G44A]", "self-cleavage": 0.3},
      {"variant": "GGCAGAGCUCAACACAGCGUGGCAAAGUGGCUGUGGCCCGACUGCC", "note": "[U38C A39C]", "self-cleavage": 0.1},
      {"variant": "GGCAGAGCUCAACACAGCGUGGCAAAGUGGCUGUGGCCGGACUGCC", "note": "[U38C A39G]", "self-cleavage": 0.06},
      {"variant": "GGCAGAGCUCAACACAGCGUGGCAAAGUGGCUGUGGCCUGACUGCC", "note": "[U38C A39U]", "self-cleavage": 0.7},
      {"variant": "GGCAGAGCUCAACACAGCGUGGCAAAGUGGCUGUGGCUGGACUCCC", "note": "[A39G G44C]", "self-cleavage": 0.09},
      {"variant": "GGCAGAGCUCAACACAGCGUGGCAAAGUGGCUGUGGCUGGACUACC", "note": "[A39G G44A]", "self-cleavage": 0.16},
      {"variant": "GGCAGAGCUCAACACAGCGUGGCAAAGUGGCUGUGGCUGGACUUCC", "note": "[A39G G44U]", "self-cleavage": 0.22},
      {"variant": "GGCAGAGCUCAACACAGCGUGGCAAAGUGGCUGUGGCGAGACUGGC", "note": "[U38G C45G]", "self-cleavage": 0.05},
      {"variant": "GGCAGAGCUCAACACAGCGUGGCAAAGUGGCUGUGGCGAGACUGUC", "note": "[U38G C45U]", "self-cleavage": 0.05},
      {"variant": "GGCAGAGCUCAACACAGCGUGGCAAAGUGGCUGUGGCGAGACUGAC", "note": "[U38G C45A]", "self-cleavage": 0.04},
      {"variant": "GGCAGAGCUCAACACAGCGUGGCAAAGUGGCUGUGGCGAGUCUGCC", "note": "[U38G A41U]", "self-cleavage": 0.04},
      {"variant": "GGCAGAGCUCAACACAGCGUGGCAAAGUGGCUGUGGCGAGGCUGCC", "note": "[U38G A41G]", "self-cleavage": 0.14},
      {"variant": "GGCAGAGCUCAACACAGCGUGGCAAAGUGGCUGUGGCGAGCCUGCC", "note": "[U38G A41C]", "self-cleavage": 0.02},
      {"variant": "GGCAGAGCUCAACACAGCGUGGCAAAGUGGCUGUGGCGAGACGGCC", "note": "[U38G U43G]", "self-cleavage": 0.02},
      {"variant": "GGCAGAGCUCAACACAGCGUGGCAAAGUGGCUGUGGCGAGACAGCC", "note": "[U38G U43A]", "self-cleavage": 0.02},
      {"variant": "GGCAGAGCUCAACACAGCGUGGCAAAGUGGCUGUGGCGAGACCGCC", "note": "[U38G U43C]", "self-cleavage": 0.05},
      {"variant": "GGCAGAGCUCAACACAGCGUGGCAAAGUGGCUGUGGCUGGACCGCC", "note": "[A39G U43C]", "self-cleavage": 0.04},
      {"variant": "GGCAGAGCUCAACACAGCGUGGCAAAGUGGCUGUGGCUGGACGGCC", "note": "[A39G U43G]", "self-cleavage": 0.12},
      {"variant": "GGCAGAGCUCAACACAGCGUGGCAAAGUGGCUGUGGCUGGACAGCC", "note": "[A39G U43A]", "self-cleavage": 0.04},
      {"variant": "GGCAGAGCUCAACACAGCGUGGCAAAGUGGCUGUGGCCAGACCGCC", "note": "[U38C U43C]", "self-cleavage": 0.11},
      {"variant": "GGCAGAGCUCAACACAGCGUGGCAAAGUGGCUGUGGCCAGACAGCC", "note": "[U38C U43A]", "self-cleavage": 0.04},
      {"variant": "GGCAGAGCUCAACACAGCGUGGCAAAGUGGCUGUGGCCAGACGGCC", "note": "[U38C U43G]", "self-cleavage": 0.07},
      {"variant": "GGCAGAGCUCAACACAGCGUGGCAAAGUGGCUGUGGCCAGACUGAC", "note": "[U38C C45A]", "self-cleavage": 0.35},
      {"variant": "GGCAGAGCUCAACACAGCGUGGCAAAGUGGCUGUGGCCAGACUGGC", "note": "[U38C C45G]", "self-cleavage": 0.47},
      {"variant": "GGCAGAGCUCAACACAGCGUGGCAAAGUGGCUGUGGCCAGACUGUC", "note": "[U38C C45U]", "self-cleavage": 1.38},
      {"variant": "GGCAGAGCUCAACACAGCGUGGCAAAGUGGCUGUGGCAAAACUGCC", "note": "[U38A G40A]", "self-cleavage": 0.17},
      {"variant": "GGCAGAGCUCAACACAGCGUGGCAAAGUGGCUGUGGCAACACUGCC", "note": "[U38A G40C]", "self-cleavage": 0.09},
      {"variant": "GGCAGAGCUCAACACAGCGUGGCAAAGUGGCUGUGGCAAUACUGCC", "note": "[U38A G40U]", "self-cleavage": 0.18},
      {"variant": "GGCAGAGCUCAACACAGCGUGGCAAAGUGGCUGUGGCUUGGCUGCC", "note": "[A39U A41G]", "self-cleavage": 0.14},
      {"variant": "GGCAGAGCUCAACACAGCGUGGCAAAGUGGCUGUGGCUUGUCUGCC", "note": "[A39U A41U]", "self-cleavage": 0.67},
      {"variant": "GGCAGAGCUCAACACAGCGUGGCAAAGUGGCUGUGGCUUGCCUGCC", "note": "[A39U A41C]", "self-cleavage": 0.13},
      {"variant": "GGCAGAGCUCAACACAGCGUGGCAAAGUGGCUGUGGCUCGACUGCG", "note": "[A39C C46G]", "self-cleavage": 0.17},
      {"variant": "GGCAGAGCUCAACACAGCGUGGCAAAGUGGCUGUGGCUCGACUGCA", "note": "[A39C C46A]", "self-cleavage": 0.13},
      {"variant": "GGCAGAGCUCAACACAGCGUGGCAAAGUGGCUGUGGCUCGACUGCU", "note": "[A39C C46U]", "self-cleavage": 0.2},
      {"variant": "GGCAGAGCUCAACACAGCGUGGCAAAGUGGCUGUGGCUCAACUGCC", "note": "[A39C G40A]", "self-cleavage": 0.08},
      {"variant": "GGCAGAGCUCAACACAGCGUGGCAAAGUGGCUGUGGCUCCACUGCC", "note": "[A39C G40C]", "self-cleavage": 0.07},
      {"variant": "GGCAGAGCUCAACACAGCGUGGCAAAGUGGCUGUGGCUCUACUGCC", "note": "[A39C G40U]", "self-cleavage": 0.11},
      {"variant": "GGCAGAGCUCAACACAGCGUGGCAAAGUGGCUGUGGCGUGACUGCC", "note": "[U38G A39U]", "self-cleavage": 0.13},
      {"variant": "GGCAGAGCUCAACACAGCGUGGCAAAGUGGCUGUGGCGGGACUGCC", "note": "[U38G A39G]", "self-cleavage": 0.02},
      {"variant": "GGCAGAGCUCAACACAGCGUGGCAAAGUGGCUGUGGCGCGACUGCC", "note": "[U38G A39C]", "self-cleavage": 0.1}
    ]}
  ]
}
